According to the supplement of paper PMC10201428:
± gives the standard deviation of the averaged measurements.

Columns and labels:
[1] = tested on: VchCAST RNA-guided transposition machinery (E. coli BL21(DE3) host, lacZ target); assay: relative integration efficiency (T-RL orientation) vs wild-type transposon end (log2 (normalized fold change)); transposon end mutated: right end (5 bp flank + 75 bp right end); higher = more efficient transposition
Method: (§1)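 Pooled, barcoded VchCAST (Tn6677) mini-transposon donor libraries; each variable transposon-end sequence sits in a fixed pDonor mini-transposon context (10-bp barcode and cargo not included). Left- or right-end libraries were co-transformed with pEffector (TniQ-Cascade, TnsABC, lacZ crRNA, T7, 0.1 mM IPTG) into E. coli BL21(DE3) and grown 18 h at 37 C. T-LR and T-RL junction amplicons were sequenced; output/input barcode fold change was normalised to the mean of four wild-type barcodes and log2-transformed. Two biological replicates; zero-count/undetected variants carry floor values (-10 / -15), censored here. Barcode uncoupling by PCR recombination adds noise.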

[2] = tested on: VchCAST RNA-guided transposition machinery (E. coli BL21(DE3) host, lacZ target); assay: relative integration efficiency (T-LR orientation) vs wild-type transposon end (log2 (normalized fold change)); transposon end mutated: right end (5 bp flank + 75 bp right end); higher = more efficient transposition
Method: as §1

Sequence	relative integration efficiency (log2) [1]	relative integration efficiency (log2) [2]
ACATTTGTTGATACACCCATAAATTGATAATTACAACCATATATTGATATCTCTCACACCCATAAATTGATATTGCCTCTGATCATAGTCAGACCAACATTGCTACGACCCGTATTCGCACCGACAC	-0.676 ± 0.13	-0.339 ± 0.29
ACATTTGTTGATACAACCATAAAGTGATATTTACAACCATAAGTTGATATTTTTCACAACCATAAAATGATAATTACTCTGATCATAGTCAGACCAACATTGCTACGACCCGTATTCGCACCGACAC	-0.0427 ± 0.12	0.217 ± 0.045
ACATTTGTTGATCACCCCATAAAATGATAATTACACCCATAAATTGATAATTATCACACCCATAAATTGATATTGCCTCTGATCATAGTCAGACCAACATTGCTACGACCCGTATTCGCACCGACAC	-0.839 ± 0.08	-1.51 ± 0.22
ACATTTGTTGATACAACCATAAAATGATAATTACACCCATAAATTGATAATTATCACACCCATAAATTGATATTGCCTCTGATCATAGTCAGATGAATTTTTATGCAAAGACCAACAGCACCGACAC	0.552 ± 0.3	0.652 ± 0.2
ACATTTGTTGATACAACCATAAAATGATAATTACACCCATAAATTGATAATTATCACACCCATAAATTGATATTGCCTCTGATCATGGTGTCTCGCTTCAGCAGTCAGACCAACATTGCACCGACAC	-0.125 ± 0.18	-0.507 ± 0.025
ACATTTGTTCATACAACCATAAAATGATAATTCACCCATAAATTGATAATTATCACACCCCAATTTAACTATAACGCTCTGATCATAGTCAGACCAACATTGCTACGACCCGTATTCGCACCGACAC	-2.26 ± 0.18	-0.502 ± 0.27
ACATTTGTTGATACAACCATAAAGTGATATTTACAACCATAAAATGATAATTATCACAACCATAAAGTGATATTTACTCTGATCATAGTCAGACCAACATTGCTACGACCCGTATTCGCACCGACAC	0.0289 ± 0.14	0.103 ± 0.36
ACATTTGTGGATCCAACCATAAAATGATAATTACACCCATAAATTGATAATTATCACACCCAATTTAACTATAACGCTCTGATCATAGTCAGACCAACATTGCTACGACCCGTATTCGCACCGACAC	-0.789 ± 0.2	2.06 ± 0.17
ACATTTGTTGATACAACCATAAAATGATAATTACAACCATAAAATGATAATTATCACACCCATAAATTGATAATTACTCTGATCATAGTCAGACCAACATTGCTACGACCCGTATTCGCACCGACAC	0.0421 ± 0.03	-0.0822 ± 0.2
ACATTTGTTGATACAACCATAAGTTGATATTTTCAACCATAAGTTGATATTTTTCACACCCATAAATTGATATTGCCTCTGATCATAGTCAGACCAACATTGCTACGACCCGTATTCGCACCGACAC	0.348 ± 0.062	0.248 ± 0.18
ACATTTGTTGATACAACCATAAAATGATAATTACACCCATAAATTGATAATTATCACACCCATAAATTGATATTGCCTCTGGCTAGCATTGTACCTAGGACTGAGCTAGCCATAAACGCACCGACAC	-0.0442 ± 0.11	0.293 ± 0.3
ACATTTGTTGATACAACCATCAAATGATAATTACACCCATCAATTGATAATTATCACACCCATCAATTGATATTGCCTCTGATCATAGTCAGACCAACATTGCTACGACCCGTATTCGCACCGACAC	-1.73 ± 0.26	-1.14 ± 0.11
ACATTTGTTGATACAACCATCAAATGGTAATTCCACCCCTAAATTGATAATTATCACACCCAATTTAACTATAACGCTCTGATCATAGTCAGACCAACATTGCTACGACCCGTATTCGCACCGACAC	-5.34 ± 0.16	-2.59 ± 0.29
ACATTTGTTGATACCACCATCAAATGGTAATTACACCCCTAAATTGATAATTATCACACCCAATTTAACTATAACGCTCTGATCATAGTCAGACCAACATTGCTACGACCCGTATTCGCACCGACAC	-6.57 ± 0.25	-3.8 ± 0.81
ACATTTGTTGATACAACCATAAAATGATAATTACACCCATAAATTGATAATTATCACACCCATAAATTGATATTGCCTCTACATGAATTCAAAGTTATGTAATATAGTACTATGTACGCACCGACAC	-0.373 ± 0.31	0.172 ± 0.19
ACATTTGTTGATACAACCATAAAATGATAATTAATAATTATTCACCCATAAATTGATAATTATCACACCCATAAATTGATATTGCCTCTGATCATAGTCAGACCAACATTGCTACGACCCGTATTCG	-3.976 ± 0.019	-1.92 ± 0.46
ACATTTGTTGATACAACCATTAAATGATAATTACACCCATATATTGATAATTATCACACCCAATTTAACTATAACGCTCTGATCATAGTCAGACCAACATTGCTACGACCCGTATTCGCACCGACAC	-0.809 ± 0.018	2.04 ± 0.065
ACATTTGTTGATACAACCATAAAATGATAATTACACCCATAAATTGAATATTATCACACCCATAAATTGATATTGCCTCTGATCATAGTCAGACCAACATTGCTACGACCCGTATTCGCACCGACAC	-1.1 ± 0.27	-0.409 ± 0.19

Sequence	relative integration efficiency (log2) [1]	relative integration efficiency (log2) [2]
ACATTTGTTGATACAACCATAAAATGATACGGCCACCCATAAATTGATACGGCTCACACCCATAAATTGATAGGTACTCTGATCATAGTCAGACCAACATTGCTACGACCCGTATTCGCACCGACAC	-1.54 ± 0.28	0.469 ± 0.35
ACATTTGTTGATACAACCATAAAATGATAATTACTCTGATCATCACCCATAAATTGATAATTATCAGTGGGTATTTAACTATAACGAGTCAGACCAACATTGCTACGACCCGTATTCGCACCGACAC	-3.53 ± 0.084	-0.42 ± 0.11
ACATTTGTTGATACAACCATAAAAAGATAATTACACCCATAAATAGATAATTATCACACCCATAAATAGATATTGCCTCTGATCATAGTCAGACCAACATTGCTACGACCCGTATTCGCACCGACAC	-1.3 ± 0.18	-0.0292 ± 0.3
ACATTTGTTGATACAACCATATATTGATATCTCCAACCATAAAATGATAATTATCAGTGGGTATTTAACTATAACGCTCTGATCATAGTCAGACCAACATTGCTACGACCCGTATTCGCACCGACAC	-1.15 ± 0.24	2.32 ± 0.29
ACATTTGTTGATACAACCATAAAATGATAATTACACCCATAAATTGATACGTATCACACCCATAAATTGATATTGCCTCTGATCATAGTCAGACCAACATTGCTACGACCCGTATTCGCACCGACAC	-0.704 ± 0.012	-0.44 ± 0.48
ACATTTGTTGATACAACCATAAAATGATAATTACACCACGCCCGGTCGCCGGCGACACAAACGCCCGGTCGCGGTAAGAGGATCATAGTCAGACCAACATTGCTACGACCCGTATTCGCACCGACAC	-2.31 ± 0.082	0.799 ± 0.081
CAAAATGTAAAAAAAACCATACGTTGATTTTACGAAACCATACGCTGAAATAAAAACAACCATACCTTGAAATTGCTTATAAAGTGTACAACACTTGAGAAAGTTTACTACAGGTATGCACCGACAC		< -10
ACATTTGTTGATGCAACCATAAAGTGATATTTAATAATTATTTATAATCAGCAACTTAACCACAAAACAACCATATATTGATATCTCACAAAACAACCATAAGTTGATATTTTCTCTGATCATAGTC		< -10
ACATTAGTCGATACAACCATAAAATGATAATTACACCCATAAATTCATAATTATCACACCCAATTTAACTATAACGCTCTGATCATAGTCAGACCAACATTGCTACGACCCGTATTCGCACCGACAC	-7.36 ± 0.82	
ACATTTCAACATACAACCATAAAATGATAATTACACCCATAAATTGATAATTATCACACCCATAAATTGATATTGCCTCTGATCATAGTCAGACCAACATTGCTACGACCCGTATTCGCACCGACAC	-6.21 ± 0.12	
ACATTAGTTCATACAACCATAAAATGATAATTACACCCATAAATTGATAATTATCACACCCAATTTAACTATAACGCTCTGATCATAGTCAGACCAACATTGCTACGACCCGTATTCGCACCGACAC	-7.98 ± 0.089	
ACATTTGTTGATACAACCATACCCGTATAATTACACCCATACCGGTATAATTATCACACCCATACCGGTATATTGCCTCTGATCATAGTCAGACCAACATTGCTACGACCCGTATTCGCACCGACAC	-8.04 ± 1.3	
ACATTAGTGGATACAACCATAAAATGATAATTACACCCATAAATGGATCATTATCACACCCAATTTAACTATAACGCTCTGATCATAGTCAGACCAACATTGCTACGACCCGTATTCGCACCGACAC	-6.91 ± 0.47	
ACATTGGTGGATACAACCATAAAATGATAATTACACCCATAAATTGATAATTATCACACCCAATTTAACTATAACGCTCTGATCATAGTCAGACCAACATTGCTACGACCCGTATTCGCACCGACAC	-6.88 ± 0.39	
ACATTTGTAAAAAAAACCATACGTTGATTTTACGAAACCATACGCTGAAATAATCACACCCATAAATTGATATTGCCTCTGATCATAGTCAGACCAACATTGCTACGACCCGTATTCGCACCGACAC	-7.11 ± 0.15	
ACATTTGTTGATAACCAACGCCCCGTCGCCGGCACAAACGCCCGGTCGCCGGCGACACAAACGCCCGGTCGCGGTAAGAGGATCATAGTCAGACCAACATTGCTACGACCCGTATTCGCACCGACAC	-6.24 ± 0.19	
ACATTAGTTCATACAACCATAAAATGATAATTACACCCATAAATTGATCATTATCACACCCAATTTAACTATAACGCTCTGATCATAGTCAGACCAACATTGCTACGACCCGTATTCGCACCGACAC	-7.24 ± 0.69	
